# Reference: PMC4344358, “Radiation damage to nucleoprotein complexes in macromolecular crystallography” (Journal of Synchrotron Radiation, 2015)
# Target: the molecule itself
# Test: crystal structure; C.Esp1396I (0.7 mg/ml) mixed with 35 bp dsDNA at 4:1 molar ratio; sitting-drop vapour diffusion at 293 K, 50 mM MES pH 7.5, 25% MPD, 40 mM MgCl2; data at 100 K, space group P6(5), 2.8 A; eight datasets of increasing dose from one crystal
protein,measurement,value
"C.Esp1396I (natural protein, C.Esp1396I, bacterial helix-turn-helix controller protein of a restriction-modification system; native protein; protein chains A-D of the deposited entries; also called C-protein; controller C-protein; source: expression and purification as described earlier (McGeehan et al., 2008); pure protein) MESFLLSKVSFVIKKIRLEKGMTQEDLAYKSNLDRTYISGIERNSRNLTIKSLELIMKGLEVSDVVFFEMLIKEILKHD",stoichiometry N,4
